The experiment deals with T1, CCR1 (h), C-C chemokine receptor type 1 (human (printed as (h)), UniProt P32246 1-355).
T1 sequence (looked up): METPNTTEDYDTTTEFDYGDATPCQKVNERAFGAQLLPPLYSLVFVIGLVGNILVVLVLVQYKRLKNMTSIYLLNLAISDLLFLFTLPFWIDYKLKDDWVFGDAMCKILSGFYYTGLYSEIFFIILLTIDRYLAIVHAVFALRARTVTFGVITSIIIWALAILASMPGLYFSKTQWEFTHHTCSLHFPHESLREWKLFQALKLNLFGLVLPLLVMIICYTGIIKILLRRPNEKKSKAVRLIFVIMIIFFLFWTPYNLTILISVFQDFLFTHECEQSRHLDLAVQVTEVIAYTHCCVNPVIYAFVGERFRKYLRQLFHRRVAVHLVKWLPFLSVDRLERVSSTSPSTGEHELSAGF
Kind of experiment: Cerep ExpresSProfile radioligand competition binding, reference compound (agonist radioligand). In general terms: Displacement assays read how much labelled ligand stays bound in the presence of the test substance.

Ki data for 1 molecule are collected here from patent US20170119913A1 (3B PHARMACEUTICALS, published 2017).

A word on the Ki: it is a measure of affinity in units of concentration, obtained from inhibition or displacement.

B1: MIP-1alpha (ligand, UniProt P10147 24-92, looked up)
chain: SLAADTPTACCFSYTSRQIPQNFIADYFETSSQCSKPGVIFLTKRSRQVCADPSEEWVQKYVSDLELSA
In turn, B1 yielded a Ki of 41 pM.
